Measured values reported in paper PMC3902948.

Legend:
Prp43-Strep = Prp43-Strep (Saccharomyces cerevisiae S288c, UniProt P53131 1-767); test: UV cross-linking
[1] = target: Prp43-Strep;Strep-Ntr1(1-120) (Saccharomyces cerevisiae …, UniProt P53131;Q06411 1-767;1-120, |); test: UV cross-linking
Chain of Prp43-Strep;Strep-Ntr1(1-120) (P53131 whole entry, chain 1 of 2): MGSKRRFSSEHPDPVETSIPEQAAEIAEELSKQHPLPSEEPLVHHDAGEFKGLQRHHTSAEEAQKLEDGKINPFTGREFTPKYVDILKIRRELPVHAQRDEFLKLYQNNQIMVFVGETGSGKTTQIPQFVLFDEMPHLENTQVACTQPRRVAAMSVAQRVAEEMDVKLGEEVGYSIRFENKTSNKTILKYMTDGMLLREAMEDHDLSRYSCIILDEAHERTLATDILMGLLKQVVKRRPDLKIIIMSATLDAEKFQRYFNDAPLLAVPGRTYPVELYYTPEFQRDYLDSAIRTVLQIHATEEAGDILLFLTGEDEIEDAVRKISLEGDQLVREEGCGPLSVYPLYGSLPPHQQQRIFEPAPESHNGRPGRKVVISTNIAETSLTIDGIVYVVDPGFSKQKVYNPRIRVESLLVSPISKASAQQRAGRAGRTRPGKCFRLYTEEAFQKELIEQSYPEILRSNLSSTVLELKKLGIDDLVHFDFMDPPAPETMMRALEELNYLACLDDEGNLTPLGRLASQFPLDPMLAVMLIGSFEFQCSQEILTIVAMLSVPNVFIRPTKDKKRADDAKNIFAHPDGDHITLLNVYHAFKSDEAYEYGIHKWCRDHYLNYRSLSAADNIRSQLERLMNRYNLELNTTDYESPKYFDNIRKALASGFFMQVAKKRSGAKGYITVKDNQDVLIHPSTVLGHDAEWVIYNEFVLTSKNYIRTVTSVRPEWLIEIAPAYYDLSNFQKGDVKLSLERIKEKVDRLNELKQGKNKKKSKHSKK
Chain of Prp43-Strep;Strep-Ntr1(1-120) (Q06411 1-120, chain 2 of 2): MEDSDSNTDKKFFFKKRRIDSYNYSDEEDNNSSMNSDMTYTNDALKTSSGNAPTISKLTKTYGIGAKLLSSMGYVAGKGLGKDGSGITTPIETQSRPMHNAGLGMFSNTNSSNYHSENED

Chain of Prp43-Strep (P53131 whole entry): as the sequence (P53131 whole entry, chain 1 of 2) above

Binder: GACGGGCUGUUGGUGAUGGAC (ssRNA) [21-mer ssRNA]
- binding result (Prp43-Strep): binds
- binding result [1]: binds
